In patent publication US20120328616A1 (Amgen, published 2012) one finds binding result and GeoMean data, which are given here for six molecules.

Test [1] addresses T1, huBeta_Klotho (1-193, 419-1044) (muBetaKLOTHO Y194-416G) (human; murine, UniProt Q86Z14 1-1044).
T1 construct: also called Chimera 5; Construct 5
The experiment in a line: flow cytometry, transfected HEK-293T.

In test [2] the target is T2, huBeta_Klotho (1-81, 523-1044) (muBetaKLOTHO 82-520) (human; murine, UniProt Q86Z14 1-1044).
T2 construct: Expressed on HEK-293T cells; also called Chimera 1; Construct 1
T2 chain: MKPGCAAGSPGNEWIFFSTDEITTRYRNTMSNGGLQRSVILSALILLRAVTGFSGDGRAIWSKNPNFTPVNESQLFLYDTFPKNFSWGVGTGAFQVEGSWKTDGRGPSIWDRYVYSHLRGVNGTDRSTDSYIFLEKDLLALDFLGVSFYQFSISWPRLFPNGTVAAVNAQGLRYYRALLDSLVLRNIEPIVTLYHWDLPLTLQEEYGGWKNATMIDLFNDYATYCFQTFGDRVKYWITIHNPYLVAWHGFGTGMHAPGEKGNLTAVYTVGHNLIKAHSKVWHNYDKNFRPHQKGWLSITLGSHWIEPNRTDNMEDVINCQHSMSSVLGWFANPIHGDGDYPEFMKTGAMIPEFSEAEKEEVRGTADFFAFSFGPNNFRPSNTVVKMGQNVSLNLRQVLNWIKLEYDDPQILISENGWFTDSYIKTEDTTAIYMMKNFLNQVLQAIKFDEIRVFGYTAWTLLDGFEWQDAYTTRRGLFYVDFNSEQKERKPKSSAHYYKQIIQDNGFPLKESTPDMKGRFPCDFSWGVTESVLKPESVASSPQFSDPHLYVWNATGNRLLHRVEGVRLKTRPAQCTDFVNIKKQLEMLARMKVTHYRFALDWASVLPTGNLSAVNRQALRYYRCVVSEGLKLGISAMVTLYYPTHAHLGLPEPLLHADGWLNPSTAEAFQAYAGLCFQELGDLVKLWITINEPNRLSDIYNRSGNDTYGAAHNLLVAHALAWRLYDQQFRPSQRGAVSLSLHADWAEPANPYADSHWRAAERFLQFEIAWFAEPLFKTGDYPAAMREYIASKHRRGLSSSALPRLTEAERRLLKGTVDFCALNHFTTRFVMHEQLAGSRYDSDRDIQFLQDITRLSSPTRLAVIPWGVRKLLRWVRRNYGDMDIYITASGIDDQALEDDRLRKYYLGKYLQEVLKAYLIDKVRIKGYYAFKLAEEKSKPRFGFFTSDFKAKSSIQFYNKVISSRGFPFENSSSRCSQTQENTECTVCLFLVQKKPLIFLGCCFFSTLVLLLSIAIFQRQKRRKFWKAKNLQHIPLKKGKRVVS
The experiment in a line: flow cytometry, transfected HEK-293T. For orientation: Flow cytometry measures light scatter and fluorescence of single cells or particles in a stream.

The target in test [3] is T3, huBeta_Klotho (1-81, 303-1044) (muBetaKLOTHO 82P-302S) (human; murine, UniProt Q86Z14 1-1044).
T3 construct: also called Chimera 4; Construct 4
The experiment in a line: flow cytometry, transfected HEK-293T.

Test [4] has as its target T4, huBeta_Klotho (1-81, 194-1044) (muBeta KLOTHO 82P-193L) (human; murine, UniProt Q86Z14 1-1044).
T4 construct: also called Chimera 13; Construct 13
The experiment in a line: flow cytometry, transfected HEK-293T.

The target in test [5] is T5, huBeta_Klotho (1-633, 852-1044) (muBeta KLOTHO 632G-849Q) (human; murine, UniProt Q86Z14 1-1044).
T5 construct: also called Chimera 10; Construct 10
Kind of test: flow cytometry, transfected HEK-293T.

Test [6] deals with T6, human FGFR1c (human, UniProt P11362 22-822).
T6 construct: Full length (GenBank NP-075598), expressed on transfected 293T cells; also called huFGFR1c; FGFR1c alone
The experiment in a line: flow cytometry, transfected HEK293T.

Test [7] addresses T7, human FGFR1c/human β-Klotho complex (FGF21 receptor) (human, UniProt P11362 22-822).
T7 construct: Both full-length proteins co-expressed on cells (HEK293T, CHO, L6); also called HuFGFR1c/Hu β-Klotho; huFGF21R
Kind of test: flow cytometry, transfected HEK293T; mock-transfected cells 723.

Test [8] concerns the target T6, human FGFR1c. The test is described as above.
Test [9] concerns the target T8, cynomologous monkey FGFR1c/cynomologous monkey β-Klotho (co-transfected) (cynomologous monkey).
T8 construct: whole, on cells; also called Cyno FGFR1c/Cyno β-Klotho
Described as above.

The target of test [10] is T6, human FGFR1c. The experiment in a line: flow cytometry, transfected HEK293T; mock-transfected cells 695.
In test [11] the target is T7, human FGFR1c/human β-Klotho complex …. Kind of test: flow cytometry, transfected HEK293T; mock-transfected cells 705.
Test [12] concerns the target T6, human FGFR1c. The test is described as above.
The target of test [13] is T8, cynomologous monkey FGFR1c/cynomologous …. The description is as above.
Test [14] deals with T7, human FGFR1c/human β-Klotho complex …. The experiment in a line: flow cytometry, transfected HEK293T; mock-transfected cells 648.
The target of test [15] is T6, human FGFR1c. Described as above.
In test [16] the target is T8, cynomologous monkey FGFR1c/cynomologous …. The test is described as above.
For test [17], the target named is T7, human FGFR1c/human β-Klotho complex …. Kind of test: flow cytometry, transfected HEK293T; mock-transfected cells 688.
Test [18] addresses T6, human FGFR1c. Described as above.
For test [19], the target named is T8, cynomologous monkey FGFR1c/cynomologous …. The test is described as above.

B1: 51E5.1 (antibody, V domains shown)
VH: QVQLQQWGAGLLKPSETLSLTCAVYGGSFSGYYWSWIRQPPGKGLEWIGELDHSGSINYNPSLKSRVTISVDTSKNQFSLKLTSVTAADTAVYYCARVLGSTLDYWGQGTLVTVSS
VL: DIQMTQSPSSLSASVGDRVTITCRASQDIRNDLGWYQQKPGKAPNRLIYAASSLQFGVPSRFSGSGSGTEFTLTISSLQPEDFATYYCLQHSSYPLTFGGGTRVEIKR
As to B1, the binding result in [1] is listed as “binds”; in test [2], “binds”; in test [3], “binds”; in [4], “binds”; in test [5] it was “no binding”; with human FGFR1c [6], “no binding”. Also, the GeoMean turned out to be 21000 in test [7], 747 with human FGFR1c [8] and 36500 in test [9].

B2: 66G2.1 (antibody, V domains shown)
VH: QVQLVESGGGVVQPGRSLRLSCAASGFTFSSYGMHWVRQAPGKGLEWVAGISYDGSNKNYADSVKGRITISRDNPKNTLYLQMNSLRAEDTAVYYCATTVTKEDYYYYGMDVWGQGTTVTVSS
VL: DIQMTQSPSSLSASVGDRVTITCRASQGIRNDLGWYQQKPGKAPKRLIYAASNLQSGVPSRFSGSGSGTKFTLTINSLQPEDFATYYCLQLNGYPLTFGGGTKVEIKR
In the test with human FGFR1c [10], B2 came in with a GeoMean of 780. For the same molecule, the binding result in [1] is given as “binds”; in test [2], “binds”; in [3], “binds”; in test [4], “binds”; in [5], “no binding”; with human FGFR1c [6], “no binding”.

B3: 65C3.1 (antibody, V domains shown)
VH: QVQLQESGPGLVKPSETLSLTCTVSGGSISSYYWSWIRQPPGKGLEWIGYIYYTGSTNYNPSLKSRVTISVDTSKNQFSLKLSSVTAADTAVYYCAREYYYGSGSYYPWGQGTLVTVSS
VL: EMVMTQSPATLSVSPGERATLSCRASQSVSSQLAWYQEKPGRAPRLLIYGASNRAIDIPARLSGSGSGTEFTLTISSLQSEDFAVYYCQQYNNWPWTFGQGTKVEFKR
Regarding B3, the GeoMean in [11] was 18800; in the test with human FGFR1c [12], 719; in test [13] it was 24600. Besides, the binding result in test [1] is “binds”; in test [2], “binds”; in test [3] it was “binds”; in [4], “binds”; in test [5], “binds”; in the test with human FGFR1c [6], “no binding”.

B4: 67F5.1 (antibody, V domains shown)
VH: QVQLKESGPGLVKPSETLSLTCTVSGGSISSYYWSWIRQPPGKGLEWIGYIYYSGNTNYNPSLKSRVTISVDTSKNQFSLKLSSVTAADTAVYYCAREYYYGSGSYYPWGQGTLVTVSS
VL: EIVMTQSPATLSVSPGERVTLSCRASQSVSSNLAWYQQKPGQAPRLLIHGSSNRAIGIPARFSGSGSGTEFTLTISSLQSADFAVYNCQQYEIWPWTFGQGTKVEIKR
In the case of B4, the binding result is recorded as “binds” in [1]; “binds” in test [2]; “binds” in [3]; “binds” in test [4]; “no binding” in test [5]; “no binding” with human FGFR1c [6].

B5: 49G3.3 (antibody, V domains shown)
VH: QVTLKESGPVLVKPTETLTLTCTVSGFSLSNPRMGVSWIRQPPGKALEWLTHIFSNDEKSYSTSLKSRLTISKDTSKSQVVLSMTNMDPVDTATYYCVRVDTLNYHYYGMDVWGQGTTVTVSS
VL: DIQMTQSPSSLSASIGDRVTITCQASQGISNYLNWYQQKPGKAPKLLIYDASNLETGVPSRFSGSGSGTDFTFTISSLQPEDIATYYCHQYDDLPLTFGGGTKVEIRR
On to B5, for which the GeoMean in test [14] amounted to 17900; with human FGFR1c [15] it was 706; in test [16], 25900. Moreover, the binding result is “no binding” in test [1]; “no binding” in test [2]; “binds” in test [3]; “binds” in [4]; “binds” in [5]; “no binding” with human FGFR1c [6].

B6: 67C10.1 (antibody, V domains shown)
VH: EVQLVQSGAEVKKPGESLKISCQGSGYSFSSYWIGWVRQMPGKGLEWMGIIYPGDSDTRYSPSFQGQVTISADKSINTAYLQWSSLKASDTAIYYCARRASRGYRYGLAFAIWGQGTMVTVSS
VL: DFVMTQTPLSLPVTPGEPASISCRSSQSLLNSDDGNTYLDWYLQKPGQSPQLLIYTLSYRASGVPDRFSGSGSGTDFTLKISRVEAEDVGVYYCMQRIEFPITFGQGTRLEIKR
In the case of B6, the results for the GeoMean (in [17]; with human FGFR1c [18]; in test [19]) were 18900, 780 and 4060, respectively. In addition, the binding result in test [1] is reported as “binds”; in [2] it was “binds”; in test [3] it was “binds”; in test [4], “binds”; in [5], “no binding”; with human FGFR1c [6], “no binding”.
